Data on three molecules can be found in patent publication US20240117030A1 (Pfizer, published 2024).

In one assay the target is T1, human IL-12 (p35 + p40) (human, UniProt P29459 23-219; P29460 23-328).
T1 sequence (looked up) 1: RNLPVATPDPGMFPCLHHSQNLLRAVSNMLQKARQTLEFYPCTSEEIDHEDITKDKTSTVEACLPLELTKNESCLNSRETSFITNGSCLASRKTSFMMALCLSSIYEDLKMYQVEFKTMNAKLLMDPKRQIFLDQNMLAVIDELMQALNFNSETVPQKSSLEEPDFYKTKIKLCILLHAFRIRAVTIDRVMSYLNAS
T1 sequence (looked up) 2: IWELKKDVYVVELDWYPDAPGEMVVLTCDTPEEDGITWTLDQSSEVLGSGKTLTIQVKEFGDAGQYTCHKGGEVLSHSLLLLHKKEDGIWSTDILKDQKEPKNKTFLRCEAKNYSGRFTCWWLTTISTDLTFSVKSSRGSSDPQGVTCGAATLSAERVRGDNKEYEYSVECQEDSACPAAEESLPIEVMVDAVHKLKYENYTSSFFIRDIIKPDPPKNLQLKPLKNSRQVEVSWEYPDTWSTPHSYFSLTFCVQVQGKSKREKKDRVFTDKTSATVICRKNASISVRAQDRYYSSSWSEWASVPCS
As to the kind of experiment: cell-based or functional assay.

The next assay concerns the target T2, cynomolgus monkey IL-4 (cynomolgus monkey, UniProt P79339 25-153).
T2 construct: mature; also called cy IL-4; cyno IL-4
T2 sequence (looked up): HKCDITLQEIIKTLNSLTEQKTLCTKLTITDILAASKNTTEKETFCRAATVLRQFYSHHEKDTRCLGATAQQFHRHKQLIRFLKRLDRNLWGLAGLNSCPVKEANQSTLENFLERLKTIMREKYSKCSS
As to the kind of experiment: KinExA, fixed antigen. (In general: In KinExA the mixture passes briefly over coated beads that capture the unbound partner.)

In assay [1] the target is T3, human IL-4 (human, UniProt P05112 25-153).
T3 sequence (looked up): T2 sequence (looked up) with K26E, I29V, L33F
As to the kind of experiment: cell-based or functional assay.

Another assay concerns the target T4, human IL-12 (human, UniProt P29459 23-219; P29460 23-328).
T4 sequence (looked up) 1: T1 sequence (looked up) 1
T4 sequence (looked up) 2: T1 sequence (looked up) 2
The assay is described as follows: cell-based or functional assay.

A further assay deals with T5, cynomolgus monkey IL-12 (cynomolgus monkey, UniProt A0A2K5V4L8 57-253; G7P6S2 23-328).
T5 sequence (p35): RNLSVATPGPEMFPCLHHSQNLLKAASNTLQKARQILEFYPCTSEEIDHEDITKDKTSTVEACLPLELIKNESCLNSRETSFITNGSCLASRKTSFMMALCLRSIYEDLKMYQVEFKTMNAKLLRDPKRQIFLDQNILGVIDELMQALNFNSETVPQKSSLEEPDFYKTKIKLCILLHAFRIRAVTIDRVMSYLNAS
T5 sequence (p40): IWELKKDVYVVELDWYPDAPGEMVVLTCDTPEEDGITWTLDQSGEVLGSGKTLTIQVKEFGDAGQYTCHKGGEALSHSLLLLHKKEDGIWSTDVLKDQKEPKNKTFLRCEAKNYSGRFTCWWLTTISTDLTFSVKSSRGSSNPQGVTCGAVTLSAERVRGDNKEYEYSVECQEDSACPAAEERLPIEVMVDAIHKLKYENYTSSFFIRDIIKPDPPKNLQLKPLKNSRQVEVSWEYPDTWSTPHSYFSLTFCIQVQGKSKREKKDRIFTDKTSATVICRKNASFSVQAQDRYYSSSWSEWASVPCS
The assay is described as follows: cell-based or functional assay.

The target of the next assay is T6, human IL-23 (human, UniProt Q9NPF7 20-189; P29460 23-328).
T6 sequence (looked up) 1: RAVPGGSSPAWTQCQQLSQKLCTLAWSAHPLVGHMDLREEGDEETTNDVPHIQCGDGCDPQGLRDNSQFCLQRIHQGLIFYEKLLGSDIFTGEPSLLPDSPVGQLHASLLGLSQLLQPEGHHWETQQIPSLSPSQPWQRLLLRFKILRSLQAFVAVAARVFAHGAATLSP
T6 sequence (looked up) 2: T1 sequence (looked up) 2
The assay is described as follows: cell-based or functional assay.

For the next assay, the target named is human IL-13 (human, UniProt P35225 35-146). The assay is described as follows: cell-based or functional assay.
The next assay has as its target cynomolgus monkey IL-13 (cynomolgus monkey, UniProt Q0PW92 19-132). As to the kind of experiment: cell-based or functional assay.
The next assay deals with cynomolgus monkey IL-23 (cynomolgus monkey, UniProt H6WS56 20-189). The assay is described as follows: cell-based or functional assay.
Assay [2] deals with T3, human IL-4. The assay is described as follows: cell-based or functional assay. This is another data set of the same source.
In assay [3] the target is T3, human IL-4. The assay is described as follows: cell-based or functional assay. This is another data set of the same source.

Numbering of substitutions follows the chain as printed. Where two headings read alike, the source gives them in different places.

Sequence of human IL-13 (P35225 35-146 limits assumed, form in doubt): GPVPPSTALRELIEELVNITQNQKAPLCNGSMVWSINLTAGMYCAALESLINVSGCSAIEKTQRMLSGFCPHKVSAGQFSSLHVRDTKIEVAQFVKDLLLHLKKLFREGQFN
Sequence of cynomolgus monkey IL-13 (Q0PW92 entry or part of it limits assumed): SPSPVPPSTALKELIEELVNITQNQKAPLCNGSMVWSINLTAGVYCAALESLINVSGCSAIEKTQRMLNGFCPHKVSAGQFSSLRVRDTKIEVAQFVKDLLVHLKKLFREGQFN
Procedure for cynomolgus monkey IL-4: Samples were prepared in PBS containing 0.1% sodium azide and 1.0 mg/ml BSA. The fixed antigen assay method was used to determine binding affinity. […] Each trispecific and IL-4 cytokine were equilibrated for at least 72 hours at room temperature, then passed through a flow cell containing Polymethylmethacrylate (PMMA) beads coated with anti-hIL-4 Ab-0002 (Pfizer) that contains the same IL-4 binding domain as the trispecifics. […] Data analysis was performed with KinExA Pro software version 4.3.11 (Sapidyne). […] The ‘drift correction’ fitting option was used when responses varied between replicate injections. Two curves were obtained in independent experiments and analyzed using the ‘n-curve analysis’ tool to obtain global best fit values for the KD and active concentration of IL-4 cytokine. The software reports each best fit value along with a 95% confidence interval.
Samples were prepared in PBS containing 0.1% sodium azide and 1.0 mg/ml BSA. A fixed antigen assay method was used to determine binding affinity.

B1: p40-0003 (antibody, human IgG1, kappa, V domains shown)
VH: EVQLVQSGAEVKKPGESLKISCKGSGYSFTTYWLGWVRQMPGKGLDWIGIMSPVDSDIRYSPSFQGQVTMSVDKSITTAYLQWNSLKASDTAMYYCARRRPGQGYFDFWGQGTLVTVSS
VL: DIQMTQSPSSLSASVGDRVTITCRASQGISSWLAWYQQKPEKAPKSLIYAASSLQSGVPSRFSGSGSGTDFTLTISSLQPEDFATYYCQQYNIYPYTFGQGTKLEIKR
Consider B1, for which the “anti-IL12 bioassay IC50” value in the assay with human IL-12 (p35 + p40) worked out at 286 pM.

B2: IL413P40-0705 (trispecific antibody)
heavy: EVQLVQSGAEVKKPGESLKISCKGSGYSFTTYWLGWVRQMPGKGLDWIGIMSPVDSDIRYSPSFQGQVTMSVDKSITTAYLQWNSLKASDTAMYYCARRRPGQGYFDFWGQGTLVTVSSASTKGPSVFPLAPSSKSTSGGTAALGCLVKDYFPEPVTVSWNSGALTSGVHTFPAVLQSSGLYSLSSVVTVPSSSLGTQTYICNVNHKPSNTKVDKKVEPKSCRKTHTCPPCPAPEAAGAPSVFLFPPKPKDTLMISRTPEVTCVVVDVSHEDPEVKFNWYVDGVEVHNAKTKPREEQYNSTYRVVSVLTVLHQDWLNGKEYKCKVSNKALPAPIEKTISKAKGQPREPQVYTLPPSREEMTKNQVSLTCLVKGFYPSDIAVEWESNGQPENNYKTTPPVLDSDGSFFLYSRLTVDKSRWQQGNVFSCSVLHEALHSHYTQKSLSLSPGK
chain 1: DIQMTQSPSSLSASVGDRVTITCKASESVDHFGWSLVHWYQQKPGKAPKLLIYRASNLESGVPSRFSGSGSGTDFTLTISSLQPEDFATYYCQQSNEDPWTFGGGTKVEIKRTVAAPSVFIFPPSDEQLKSGTASVVCLLNNFYPREAKVQWKVDNALQSGNSQESVTEQDSKDSTYSLSSTLTLSKADYEKHKVYACEVTHQGLSSPVTKSFNRGECGGGGSEVTLRESGPALVKPTQTLTLTCTFSGFSLSNFGEGLSWIRQPPGKGLEWLAHIYWDDDKRYNPSLKSRLTISKDTSRNQVVLTMTNMDPVDTATYYCARRETVFYWYFDVWGQGTTVTVSSASTKGPSVFPLAPSSKSTSGGTAALGCLVKDYFPEPVTVSWNSGALTSGVHTFPAVLQSSGLYSLSSVVTVPSSSLGTQTYICNVNHKPSNTKVDKKVEPKSCEKTHTCPPCPAPEAAGAPSVFLFPPKPKDTLMISRTPEVTCVVVDVSHEDPEVKFNWYVDGVEVHNAKTKPREEQYNSTYRVVSVLTVLHQDWLNGKEYKCKVSNKALPAPIEKTISKAKGQPREPQVYTLPPSREEMTKNQVSLTCEVKGFYPSDIAVEWESNGQPENNYKTTPPVLDSDGSFFLYSKLTVDKSRWQQGNVFSCSVLHEALHSHYTQKSLSLSPGK
light 1: not shown
light 2: DIQMTQSPSSLSASVGDRVTITCRASQSVDEEGDSYMNWYQQKPGKAPKLLIYAASNLESGVPSRFSGSGSGTDFTLTISSLQPEDFATYYCQQSNKDPPTFGGGTKVEIKRTVAAPSVFIFPPSDEQLKSGTASVVCLLNNFYPREAKVQWKVDNALQSGNSQESVTEQDSKDSTYSLSSTLTLSKADYEKHKVYACEVTHQGLSSPVTKSFNRGEC
chain 2: EVQLVESGGGLVQPGGSLRLSCAASGFTFSSYAMSWVRQAPGKGLEWVASISSGDTTYYPDSVKGRFTISRDNAKNSLYLQMNSLRAEDTAVYYCARNEGYYFGLTLWGQGTLVTVSSASTKGPSVFPLAPSSKSTSGGTAALGCLVKDYFPEPVTVSWNSGALTSGVHTFPAVLQSSGLYSLSSVVTVPSSSLGTQTYICNVNHKPSNTKVDKKVEPKSC
notes: EE/RR, LS; also called IL134P40-0705; Tri-Fab-Fc IL413p40-0705
Turning to B2, the “fold of the human IL-4 affinity value” with cynomolgus monkey IL-4 is at most 1.2 fold. Moreover, in the assay with human IL-4 [1], the “fold IL-4 neutralization activity over dupilumab (monocyte CD23 bioassay)” value was around 10 fold and the “fold lower potency than mAb IL4-1040 (monocyte CD23 bioassay)” value is around 3.2 fold. In the assay with human IL-12, the “fold less potent than p40-0003, Kit-225 pSTAT4 assay” value stood at 2.9 fold and the “fold less potent than p40-0003, whole blood pSTAT4 assay” value came to 1.5 fold. Also, in the assay with cynomolgus monkey IL-12, the “fold difference in potency between human and cynomolgus monkey IL-12, Kit-225 assay” value was below 2 fold. In the assay with human IL-23, the “fold less potent than p40-0003, Kit-225 pSTAT3 assay” value is 2.6 fold and the “fold less potent than p40-0003, whole blood pSTAT3 assay” value is 2.4 fold. Also, in the assay with human IL-13, the “fold IL-13 neutralization activity over dupilumab (monocyte CD23 bioassay)” value came out at 8.9 fold and the “fold lower potency than IL13-0001 (monocyte CD23 bioassay)” value was around 2.4 fold. Further, the “fold reduced neutralization compared to the human cytokine (monocyte CD23 bioassay)” value with cynomolgus monkey IL-13 was around 4 fold. For the same molecule, the “fold difference in potency between human and cynomolgus monkey IL-23, Kit-225 assay” value with cynomolgus monkey IL-23 was below 2 fold.

B3: IL4-1284 (antibody, human IgG1, kappa, V domains shown)
VH: QVTLRESGPALVKPTQTLTLTCTFSGFSLSTSGMGVSWIRQPPGKGLEWLAHIYWDDDKRYNPSLKSRLTISKDTSRNQVVLTMTNMDPVDTATYYCARRETVFYWYFDVWGRGTPVTVSS
VL: DIVMTQSPDSLAVSLGERATINCKASQSVDYDGDSYMNWYQQKPGQPPKLLIYAASNLESGVPDRFSGSGSGTDFTLTISSLQAEDVAVYYCQQSNEDPPRFGGGTKVEIKR
Regarding B3, the “pSTAT6 IC50 [pM]” value with human IL-4 [2] was 125 pM. In the assay with human IL-4 [3], the “pSTAT6: Fold bioactivity relative to IL4-1284” value was found to be 1 fold, the “pSTAT6: Fold bioactivity relative to IL4-1285” value is 0.6 fold and the “pSTAT6 IC50 [pM]” value came out at 125 pM.
